B1: 306VQIVYK311 hexapeptide (peptide)
peptide: Ac-VQIVYK-NH2
notes: also called amyloid motif; source: synthetic peptide (Genscript)

Molecular target: the molecule itself
Assay: ThT fluorescence aggregation assay; spontaneous self-assembly of disaggregated synthetic peptides, 200 µM, PBS, 25 µM ThT, room temperature, no inducer; the R2R3 peptides of Fig. 4 also looked at by TEM

Binding result, binds:
Ac-DNIKHVSGGGSVQIVYK-NH2 (peptide, UniProt P10636-8 295-311, looked up, source: synthetic peptide (Genscript)) [R2R3-P301S peptide fragment]
Ac-DNIKHVLGGGSVQIVYK-NH2 (peptide, UniProt P10636-8 295-311, looked up, source: synthetic peptide (Genscript)) [R2R3-P301L peptide fragment]
Ac-DIKHVPGGGSVQIVYK-NH2 (peptide, UniProt P10636-8 295-311, looked up, source: synthetic peptide (Genscript)) [R2R3-N296Δ peptide fragment]
Ac-DNIKHVPGVGSVQIVYK-NH2 (peptide, UniProt P10636-8 295-311, looked up, source: synthetic peptide (Genscript)) [R2R3-G303V peptide fragment]
Ac-DNIKHVPGGGNVQIVYK-NH2 (peptide, UniProt P10636-8 295-311, looked up, source: synthetic peptide (Genscript)) [R2R3-S305N peptide fragment]
Ac-DNIKHIPGGGSVQIVYK-NH2 (peptide, UniProt P10636-8 295-311, looked up, source: synthetic peptide (Genscript)) [R2R3-V300I peptide fragment]
B1

Reference: PMC6555816, “Tau local structure shields an amyloid-forming motif and controls aggregation propensity” (Nature Communications, 2019)
